Experimental findings from patent US20070059320A1 (HOSPITAL FOR SICK CHILDREN, published 2007) are described below.

For experiment [1], the target named is non-receptor tyrosine kinase Src, native protein in brain lysates, PSD preparations, hippocampal neurons and … (rat, UniProt Q9WUD9 2-536, limits assumed). Put plainly: GST pull-down from PSD preparations, immunoblot.
Experiment [2] deals with T1, GluR2, native protein in PSD preparations (rat, UniProt P19491 22-883, limits assumed).
T1 construct: also called AMPA receptor complex
Put plainly: co-immunoprecipitation from PSD preparations with anti-GluR2, probed with anti-ND2.

Experiment [3] addresses T2, potassium channel Kv3.1, native protein in PSD preparations (rat, UniProt P25122 1-585).
T2 sequence (looked up): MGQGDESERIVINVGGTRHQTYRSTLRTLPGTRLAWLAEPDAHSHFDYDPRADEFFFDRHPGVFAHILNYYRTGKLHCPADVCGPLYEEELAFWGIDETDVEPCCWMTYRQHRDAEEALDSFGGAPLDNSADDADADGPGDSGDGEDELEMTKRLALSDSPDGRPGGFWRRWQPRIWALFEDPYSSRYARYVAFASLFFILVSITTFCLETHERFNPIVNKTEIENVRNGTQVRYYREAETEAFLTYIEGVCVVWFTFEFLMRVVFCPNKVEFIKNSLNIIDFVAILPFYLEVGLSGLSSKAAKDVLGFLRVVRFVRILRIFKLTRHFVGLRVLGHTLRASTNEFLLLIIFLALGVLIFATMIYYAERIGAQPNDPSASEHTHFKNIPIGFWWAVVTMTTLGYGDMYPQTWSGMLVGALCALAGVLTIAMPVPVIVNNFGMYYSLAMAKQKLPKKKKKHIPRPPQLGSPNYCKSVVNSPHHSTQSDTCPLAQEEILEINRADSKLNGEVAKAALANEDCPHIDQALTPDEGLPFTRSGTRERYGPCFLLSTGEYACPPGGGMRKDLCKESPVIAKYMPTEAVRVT
Kind of experiment: co-immunoprecipitation from PSD preparations with anti-Kv3.1, probed with anti-ND2.

Experiment [4] concerns the target T3, recombinant Src unique domain (biotinylated probe) (murine (n-Src), UniProt P12931 5-83 (human entry), biotinylated).
T3 construct: also called unique domain of Src; Src unique domain protein; not shown: GST tag of vector pGEX2T'6; purified as GST fusion protein
Kind of experiment: blot of ND2-GST fusion proteins probed with biotinylated Src unique domain, streptavidin-HRP.

Ends that are not written are not given here.

T1 sequence (P19491 22-883 limits assumed): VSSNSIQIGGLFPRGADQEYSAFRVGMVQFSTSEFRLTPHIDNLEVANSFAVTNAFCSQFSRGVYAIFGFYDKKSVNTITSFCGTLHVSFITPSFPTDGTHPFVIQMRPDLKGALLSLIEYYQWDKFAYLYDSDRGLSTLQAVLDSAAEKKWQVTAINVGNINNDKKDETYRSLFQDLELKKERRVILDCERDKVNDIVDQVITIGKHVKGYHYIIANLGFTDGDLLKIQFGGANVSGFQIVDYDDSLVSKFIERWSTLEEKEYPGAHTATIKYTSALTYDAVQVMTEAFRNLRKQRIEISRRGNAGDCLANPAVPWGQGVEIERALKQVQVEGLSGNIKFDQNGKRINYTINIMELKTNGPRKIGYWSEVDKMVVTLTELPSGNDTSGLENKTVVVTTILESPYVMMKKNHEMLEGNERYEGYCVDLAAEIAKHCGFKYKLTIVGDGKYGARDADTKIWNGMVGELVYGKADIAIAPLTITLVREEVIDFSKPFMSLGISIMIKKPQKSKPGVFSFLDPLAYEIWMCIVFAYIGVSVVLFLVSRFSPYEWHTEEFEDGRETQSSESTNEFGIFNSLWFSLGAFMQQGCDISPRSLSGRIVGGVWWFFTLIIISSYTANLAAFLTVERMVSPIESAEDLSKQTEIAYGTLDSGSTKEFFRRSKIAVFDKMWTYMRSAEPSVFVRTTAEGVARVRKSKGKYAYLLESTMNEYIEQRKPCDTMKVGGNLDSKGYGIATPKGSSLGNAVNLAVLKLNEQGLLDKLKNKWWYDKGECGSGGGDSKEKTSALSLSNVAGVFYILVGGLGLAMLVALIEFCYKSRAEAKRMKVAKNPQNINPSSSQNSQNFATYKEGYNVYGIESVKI

B1: ND2.3-GST fusion protein (amino acids 1-188 of human ND2) (other)
chain: MNPLAQPVIYSTIFAGTLITALSSHWFFTWVGLEMNMLAFIPVLTKKMNPRSTEAAIKYFLTQATASMILLMAILFNNMLSGQWTMTNTTNQYSSLMIMMAMAMKLGMAPFHFWVPEVTQGTPLTSGLLLLTWQKLAPISIMYQISPSLNVSLLLTLSILSIMAGSWGGLNQTQLRKILAYSSITHMG
notes: not shown: glutathione S-transferase (GST) tag of vector pGEX4T-1
As for B1, the binding result in experiment [1] was “no binding”.

B2: NADH dehydrogenase subunit 2 (ND2), native protein in brain lysates, PSD preparations, hippocampal neurons and tissues (other, UniProt P11662 1-346, looked up)
chain: MNPITLIIIYFTILMGPVITMSSSNLLLMWVGLEMSLLAIIPLLANKKSPRSTEAATKYFLTQATASMIILLVIILNYKQSGMWTLQQQTNNMLLNMMLISLAMKLGLAPFHYWLPEVTQGIPLHIGLILLTWQKIAPLSILYQFYQLLNPTITTILAISSVFVGAWGGLNQTQTRKIMAYSSIAHMGWMTAILPYNPNLTLLNLTIYILLTVPMFITLMTNSATTINTLSLAWNKTPMILTMTSIILLSLGGLPPLTGFLPKWAIISELLKNNCSTLSTLMAIMALLSLFFYTRLIYSMSLTMFPTNNNSKMISHHHQNPKHNFILPTLTVLSTLTLPLSSQLIT
As to B2, the binding result in experiment [2] and in experiment [3] was “no binding” each time.

B3: ND2.2-GST fusion protein (amino acids 189-238 of human ND2) (other)
chain: WMMAVLPYNPNMTILNLTIYIILTTTAFLLLNLNSSTTTLLLSRTWNKLT
modifications: also: fused to GST tag of pGEX vector, sequence and linker not given here
notes: as for B1
Consider B3, for which the binding result in experiment [4] and in experiment [1] was “no binding” throughout.
